T1: HuCDCP1-C (human, UniProt Q9H5V8 30-667)
T1 construct: range 30-667; expressed in HEK-293T, purified by Fc/his tag; also called human CDCP1-C; full-length extracellular domain of human CDCP1; not shown: Fc or his tag
T1 sequence (looked up): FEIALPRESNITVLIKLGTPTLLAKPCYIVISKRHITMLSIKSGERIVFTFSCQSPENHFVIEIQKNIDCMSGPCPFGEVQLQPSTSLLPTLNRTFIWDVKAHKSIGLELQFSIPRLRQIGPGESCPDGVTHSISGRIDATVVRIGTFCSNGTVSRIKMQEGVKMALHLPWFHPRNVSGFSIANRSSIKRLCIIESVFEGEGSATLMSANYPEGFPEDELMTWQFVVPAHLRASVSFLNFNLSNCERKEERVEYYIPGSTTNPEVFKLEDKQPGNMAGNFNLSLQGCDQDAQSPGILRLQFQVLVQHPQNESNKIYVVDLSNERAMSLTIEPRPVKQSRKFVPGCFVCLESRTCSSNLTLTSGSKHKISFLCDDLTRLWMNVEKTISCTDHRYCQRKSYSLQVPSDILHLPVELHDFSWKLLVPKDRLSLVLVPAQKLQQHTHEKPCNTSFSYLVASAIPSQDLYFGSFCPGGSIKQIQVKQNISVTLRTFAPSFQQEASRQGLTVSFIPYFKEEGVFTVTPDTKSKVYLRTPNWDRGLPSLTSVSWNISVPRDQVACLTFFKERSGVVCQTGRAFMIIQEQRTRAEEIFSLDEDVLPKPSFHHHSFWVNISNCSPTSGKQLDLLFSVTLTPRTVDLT


biological target: T1, HuCDCP1-C; experiment: SPR (Caterra), antigen immobilized
Description: The humanized anti-CDCP1 antibodies obtained from Example 11 were subjected to gene cloning, constructed into pTT5 expression vector for a small amount of expression in CHO cells (Expi-CHOS: Gibco A29127), and purified with an Fc affinity column (AT Protein A Diamond Plus. No. AA402312). Antibody purity was analyzed by HPLC and determined by Nanodrop. High-throughput affinity assay was carried out for a small amount of antibodies by Caterra.

| Binder | Kd [nM] | koff [s⁻¹] | kon [M⁻¹ s⁻¹] |
| --- | --- | --- | --- |
| 1CP-124 (antibody, human IgG1, kappa, V domains shown, humanized 3C11, human IgG1 kappa) VH: QVQLVQSGAEVKKPGASVKVSCKASGYNFISYWLHWVRQAPGQGLEWMGGIYPGNTDTTYNQKFKGRVTMTRDTSTSTVYMELSSLRSEDTAVYYCIRYDYDRGMDYWGQGTLVTVSS VL: DIQMTQSPSSLSASVGDRVTITCRASEDIYYRLAWYQQKPGKAPKLLISGATALETGVPSRFSGSGSGKDYTFTISSLQPEDIATYYCQHYWNIPWTFGQGTKVEIKR | 0.0993 | 1.47e-05 | 148000 |
| 1CP-152 (antibody, human IgG1, kappa, V domains shown, humanized 8C9, human IgG1 kappa) VH: EVQLVESGGGLVQPGRSLRLSCTTSGLTFTHYHMSWVRQAPGKGLEWVAIIRNKAYGYTTDYSASVRGRFTISRDDSKSILYLQMNSLKTEDTAVYYCVREGGYGYDGTFAYWGQGTLVTVSS VL: DIQMTQSPSSLSASVGDRVTITCRASESVDNYGISFMNWFQQKPGQAPKLLIYAASNQGSGVPSRFSGSGSGTDFTLTISSMQPEDFATYYCQQSKEVPRTFGGGTKVEIKR | 4.09 | 0.000465 | 114000 |
| 1CP-157 (antibody, human IgG1, kappa, V domains shown, humanized 8C9, human IgG1 kappa) VH: EVQLVESGGGLVQPGRSLRLSCTTSGLTFTHYHMSWVRQAPGKGPEWVAIIRNKAYGYTTDYSASVRGRFTISRDDSKSILYLQMNSLKTEDTAVYYCVREGGYGYDGTFAYWGQGTLVTVSS VL: DIQMTQSPSSLSASVGDRVTITCRASESVDNYGISFMNWFQQKPGQPPKLLIYAASNQGSGVPSRFSGSGSGTDFTLTISSMQPEDFATYYCQQSKEVPRTFGGGTKVEIKR | 3.14 | 0.000385 | 122000 |
| 1CP-117 (antibody, human IgG1, kappa, V domains shown, humanized 8E5, human IgG1 kappa) VH: QVQLVQSGSELKKPGASVKVSCKASGYTLTDFSMHWVRQAPGQGLEWMGWINTETGAPTYADDFKGRFVLSLDTSVSTAYLQISSLKAEDTAVYYCSRGRDYDPHFDYWGQGTLVTVSS VL: EIVLTQSPATLSLSPGERATLSCRASQSISDFLHWYQQKPGQSPRLLIKYASQSISGIPARFSGSGSGSDFTLTISSVEPEDFAVYYCQSAHSFPYTFGQGTKLEIKR | 0.259 | 3.93e-05 | 152000 |
| 1CP-121 (antibody, human IgG1, kappa, V domains shown, humanized 8E5, human IgG1 kappa) VH: QVQLVQSGSELKKPGASVKVSCKASGYTLTDFSMHWVRQAPGQGLEWMGWINTETGAPTYADDFKGRFVLSLDTSVSTAYLQISSLKAEDTAVYYCSRGRDYDPHFDYWGQGTLVTVSS VL: EIVLTQSPATLSLSPGERATLSCRASQSISDFLHWYQQKSGQSPRLLIKYASQSISGIPARFSGSGSGSDFTLTISSVEPEDFAVYYCQSAHSFPYTFGQGTKLEIKR | ≤ 0.0675 | ≤ 1e-05 | 148000 |

More lines, now with the values ahead:

| Kd [nM] | koff [s⁻¹] | kon [M⁻¹ s⁻¹] | Binder |
| --- | --- | --- | --- |
| ≤ 0.0623 | ≤ 1e-05 | 160000 | 1CP-129 (antibody, human IgG1, kappa, V domains shown, humanized 3C11, human IgG1 kappa) VH: QVQLVQSGAEVKKPGASVKVSCKASGYNFISYWLHWVRQAPGQGLEWMGGIYPGNTDTTYNQKFKGRVTMTADTSTSTVYMELSSLRSEDTAVYYCIRYDYDRGMDYWGQGTLVTVSS VL: DIQMTQSPSSLSASVGDRVTITCRASEDIYYRLAWYQQKPGKAPKLLISGATALETGVPSRFSGSGSGKDYTLTISSLQPEDIATYYCQHYWNIPWTFGQGTKVEIKR |
| ≤ 0.0717 | ≤ 1e-05 | 139000 | 1CP-128 (antibody, human IgG1, kappa, V domains shown, humanized 3C11, human IgG1 kappa) VH: QVQLVQSGAEVKKPGASVKVSCKASGYNFISYWLHWVRQAPGQGLEWMGGIYPGNTDTTYNQKFKGRVTMTRDTSTSTVYMELSSLRSEDTAVYYCIRYDYDRGMDYWGQGTLVTVSS VL: DIQMTQSPSSLSASVGDRVTITCRASEDIYYRLAWYQQKPGKAPKLLISGATALETGVPSRFSGSGSGKDYTLTISSLQPEDIATYYCQHYWNIPWTFGQGTKVEIKR |
| 0.144 | 2.17e-05 | 151000 | 1CP-125 (antibody, human IgG1, kappa, V domains shown, humanized 3C11, human IgG1 kappa) VH: QVQLVQSGAEVKKPGASVKVSCKASGYNFISYWLHWVRQAPGQGLEWMGGIYPGNTDTTYNQKFKGRVTMTADTSTSTVYMELSSLRSEDTAVYYCIRYDYDRGMDYWGQGTLVTVSS VL: DIQMTQSPSSLSASVGDRVTITCRASEDIYYRLAWYQQKPGKAPKLLISGATALETGVPSRFSGSGSGKDYTFTISSLQPEDIATYYCQHYWNIPWTFGQGTKVEIKR |

Reference: patent US20260250410A1 (SICHUAN HUIYU PHARMACEUTICAL, published 2026)
